Experimental findings from paper PMC6555819, “Comprehensive study of nuclear receptor DNA binding provides a revised framework for understanding receptor specificity” are described below.

In one data set the target is RXRa (Homo sapiens, UniProt P19793). The experiment in a line: no ligand; PBM; 180 nM; PBS pH 7.4, 2% milk, 0.02% Triton X-100, 1 mM DTT, BSA, 0.4 mg/ml salmon testes DNA. The note with it: tags: His cleaved; chain copies: 2; label: surface-attached array probe.
The next data set concerns the target FXR:RXRa (Homo sapiens, UniProt Q96RI1;P19793 full;full). Description: no ligand; PBM; 270 nM : 90 nM RXRa; PBS pH 7.4, 2% milk, 0.02% Triton X-100, 1 mM DTT, BSA, 0.4 mg/ml salmon testes DNA. The note with it: tags: His kept;His cleaved; copies: 1;1; label: surface-attached array probe. The method in brief: (§1)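 Random background probes are the reference for binding z-scores. These scores derive from regression-normalized fluorescence on custom Agilent 4×180K protein-binding microarrays incubated 1 h with ligand-free nuclear receptor dimers. Binding was detected with antibodies against each partner (one per run).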

The target of the next data set is PPARa:RXRa (Homo sapiens, UniProt Q07869;P19793 full;full). The data set is described as above. The note with it: tags: GST kept;His cleaved; copies: 1;1; label: surface-attached array probe. Put shortly: as §1
The next data set has as its target RARb:RXRa (Homo sapiens, UniProt P10826;P19793 full;full). The data set is described as above. Particulars: tags: His kept;His cleaved; copies: 1;1; label: surface-attached array probe. The method in brief:
as §1

The next data set deals with RARg:RXRa (Homo sapiens, UniProt P13631;P19793 full;full). Described as above. The note with it: tags: His kept;His cleaved; copies: 1;1; label: surface-attached array probe. Put shortly: as §1
In the next data set the target is VDR:RXRa (Homo sapiens, UniProt P11473;P19793 full;full). Described as above. The note with it: tags: His kept;His cleaved; copies: 1;1; label: surface-attached array probe. Put shortly:
as §1

PPARa:RXRa, sequence (Q07869 whole entry, chain 1 of 2): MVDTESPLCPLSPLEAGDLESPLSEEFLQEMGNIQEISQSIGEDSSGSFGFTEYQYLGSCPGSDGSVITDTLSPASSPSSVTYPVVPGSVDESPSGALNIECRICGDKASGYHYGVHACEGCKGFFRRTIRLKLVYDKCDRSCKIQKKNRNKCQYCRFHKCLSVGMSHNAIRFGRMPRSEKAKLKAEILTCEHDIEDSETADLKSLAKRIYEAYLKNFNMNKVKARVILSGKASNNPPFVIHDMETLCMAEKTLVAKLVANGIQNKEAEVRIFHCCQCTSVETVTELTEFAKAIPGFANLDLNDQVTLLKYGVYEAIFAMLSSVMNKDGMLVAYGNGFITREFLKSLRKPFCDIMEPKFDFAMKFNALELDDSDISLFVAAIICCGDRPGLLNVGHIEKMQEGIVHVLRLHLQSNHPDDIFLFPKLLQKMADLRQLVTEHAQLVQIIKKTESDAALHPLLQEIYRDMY
PPARa:RXRa, sequence (P19793 whole entry, chain 2 of 2): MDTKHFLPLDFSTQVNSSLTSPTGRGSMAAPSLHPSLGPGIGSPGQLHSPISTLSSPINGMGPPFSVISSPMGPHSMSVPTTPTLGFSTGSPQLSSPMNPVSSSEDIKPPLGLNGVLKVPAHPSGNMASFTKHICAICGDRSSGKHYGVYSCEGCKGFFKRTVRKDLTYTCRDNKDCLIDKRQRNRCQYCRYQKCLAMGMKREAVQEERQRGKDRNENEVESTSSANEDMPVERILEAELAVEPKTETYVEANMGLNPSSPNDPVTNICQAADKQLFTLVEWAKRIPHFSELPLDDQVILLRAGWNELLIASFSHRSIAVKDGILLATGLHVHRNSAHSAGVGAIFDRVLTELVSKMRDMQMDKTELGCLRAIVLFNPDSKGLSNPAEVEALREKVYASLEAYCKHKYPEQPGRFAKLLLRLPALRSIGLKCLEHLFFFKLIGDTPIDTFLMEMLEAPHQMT
FXR:RXRa, sequence (Q96RI1 whole entry, chain 1 of 2): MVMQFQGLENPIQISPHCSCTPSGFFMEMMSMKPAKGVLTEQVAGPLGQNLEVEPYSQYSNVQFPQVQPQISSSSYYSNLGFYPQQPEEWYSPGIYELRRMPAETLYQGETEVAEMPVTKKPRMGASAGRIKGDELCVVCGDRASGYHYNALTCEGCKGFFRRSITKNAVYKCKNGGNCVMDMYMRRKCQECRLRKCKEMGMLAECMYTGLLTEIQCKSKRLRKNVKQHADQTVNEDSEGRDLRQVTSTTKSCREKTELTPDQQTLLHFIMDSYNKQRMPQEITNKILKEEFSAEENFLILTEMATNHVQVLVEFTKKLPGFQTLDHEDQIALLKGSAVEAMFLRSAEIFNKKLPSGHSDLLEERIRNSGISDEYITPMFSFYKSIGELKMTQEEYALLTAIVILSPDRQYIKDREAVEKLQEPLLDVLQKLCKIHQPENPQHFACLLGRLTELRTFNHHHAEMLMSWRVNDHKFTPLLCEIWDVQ
FXR:RXRa, sequence (P19793 whole entry, chain 2 of 2): as the sequence (P19793 whole entry, chain 2 of 2) above
RXRa, sequence (P19793 whole entry): as the sequence (P19793 whole entry, chain 2 of 2) above
RARb:RXRa, sequence (P10826 whole entry, chain 1 of 2): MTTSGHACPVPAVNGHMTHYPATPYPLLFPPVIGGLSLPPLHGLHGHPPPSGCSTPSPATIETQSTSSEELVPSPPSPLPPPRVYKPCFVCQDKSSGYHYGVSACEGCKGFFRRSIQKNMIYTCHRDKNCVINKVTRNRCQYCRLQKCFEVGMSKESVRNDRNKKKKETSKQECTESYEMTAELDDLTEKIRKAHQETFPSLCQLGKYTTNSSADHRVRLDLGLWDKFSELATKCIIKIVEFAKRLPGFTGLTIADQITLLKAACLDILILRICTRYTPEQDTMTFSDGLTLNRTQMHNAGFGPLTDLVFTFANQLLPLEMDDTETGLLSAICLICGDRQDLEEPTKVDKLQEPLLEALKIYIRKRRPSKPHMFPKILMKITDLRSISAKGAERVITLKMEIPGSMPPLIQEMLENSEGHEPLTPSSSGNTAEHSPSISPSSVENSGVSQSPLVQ
RARb:RXRa, sequence (P19793 whole entry, chain 2 of 2): as the sequence (P19793 whole entry, chain 2 of 2) above
RARg:RXRa, sequence (P13631 whole entry, chain 1 of 2): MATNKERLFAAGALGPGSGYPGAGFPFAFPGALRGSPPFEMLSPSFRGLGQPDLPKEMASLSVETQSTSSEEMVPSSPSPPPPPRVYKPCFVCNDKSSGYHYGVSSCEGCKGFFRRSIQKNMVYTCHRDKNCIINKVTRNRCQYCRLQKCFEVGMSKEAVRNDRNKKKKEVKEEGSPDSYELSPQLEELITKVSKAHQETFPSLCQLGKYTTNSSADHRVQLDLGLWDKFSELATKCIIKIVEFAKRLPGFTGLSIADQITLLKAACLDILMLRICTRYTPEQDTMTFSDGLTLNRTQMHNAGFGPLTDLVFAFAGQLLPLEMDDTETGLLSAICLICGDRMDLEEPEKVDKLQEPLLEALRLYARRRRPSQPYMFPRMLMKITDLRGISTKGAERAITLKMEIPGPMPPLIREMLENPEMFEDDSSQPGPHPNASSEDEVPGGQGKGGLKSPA
RARg:RXRa, sequence (P19793 whole entry, chain 2 of 2): as the sequence (P19793 whole entry, chain 2 of 2) above
VDR:RXRa, sequence (P11473 whole entry, chain 1 of 2): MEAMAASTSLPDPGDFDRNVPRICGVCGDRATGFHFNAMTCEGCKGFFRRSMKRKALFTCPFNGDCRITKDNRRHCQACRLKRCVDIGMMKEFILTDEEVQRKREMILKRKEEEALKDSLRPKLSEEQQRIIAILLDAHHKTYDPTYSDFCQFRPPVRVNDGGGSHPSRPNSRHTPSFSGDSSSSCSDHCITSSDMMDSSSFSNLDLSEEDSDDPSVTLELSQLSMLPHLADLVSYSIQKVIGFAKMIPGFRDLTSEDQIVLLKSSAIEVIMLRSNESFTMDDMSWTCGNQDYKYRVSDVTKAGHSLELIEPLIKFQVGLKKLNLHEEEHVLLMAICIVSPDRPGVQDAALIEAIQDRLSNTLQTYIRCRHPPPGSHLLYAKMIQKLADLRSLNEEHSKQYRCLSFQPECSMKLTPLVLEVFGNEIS
VDR:RXRa, sequence (P19793 whole entry, chain 2 of 2): as the sequence (P19793 whole entry, chain 2 of 2) above

B1: NRC3_random_hg19_375_o1 (dsDNA)
DNA 1: GCCAGAAGAGGAGAAGACACATAAGAAGAGGAAGTCGCGATTGACAGCGTAGAATGAAGG
DNA 2: CCTTCATTCTACGCTGTCAATCGCGACTTCCTCTTCTTATGTGTCTTCTCCTCTTCTGGC
Turning to B1, the binding signal is 0.13 PBM z-score against 500 random probes with RXRa and 0.5 PBM z-score against 500 random probes with FXR:RXRa.

B2: NRC3_wobSeed63_DR2_T8G_o1 (dsDNA)
DNA 1: GCCGAACGAGGTCACCAGGACAGTGAAGAGGTTGGAGCGATTGACAGCGTAGAATGAAGG
DNA 2: CCTTCATTCTACGCTGTCAATCGCTCCAACCTCTTCACTGTCCTGGTGACCTCGTTCGGC
For the molecule B2, the binding signal with RXRa was 7.78 PBM z-score against 500 random probes; in the data set with PPARa:RXRa it was 6.82 PBM z-score against 500 random probes; with FXR:RXRa, 7.97 PBM z-score against 500 random probes; with RARb:RXRa, 5.63 PBM z-score against 500 random probes.

B3: NRC3_random_hg19_45_o1 (dsDNA)
DNA 1: GCAAACACAAAGTTTGGGCTGCCTTCTCTAGAGATTGCGATTGACAGCGTAGAATGAAGG
DNA 2: CCTTCATTCTACGCTGTCAATCGCAATCTCTAGAGAAGGCAGCCCAAACTTTGTGTTTGC
For the molecule B3, the binding signal is -0.51 PBM z-score against 500 random probes in the data set with RXRa and -0.19 PBM z-score against 500 random probes with RARb:RXRa.

B4: NRC3_wobSeed53_DR2_C8A_o1 (dsDNA)
DNA 1: GCCCTTAAGGGTCACGAGGTTATAGCACGACGAGCGGCGATTGACAGCGTAGAATGAAGG
DNA 2: CCTTCATTCTACGCTGTCAATCGCCGCTCGTCGTGCTATAACCTCGTGACCCTTAAGGGC
Take B4: the binding signal with RXRa is 8.38 PBM z-score against 500 random probes; with PPARa:RXRa, 7.03 PBM z-score against 500 random probes; in the data set with RARg:RXRa, 7.41 PBM z-score against 500 random probes; in the data set with FXR:RXRa it was 8.42 PBM z-score against 500 random probes; with RARb:RXRa, 6 PBM z-score against 500 random probes.

B5: NRC3_wobSeed73_DR3_G20T_o1 (dsDNA)
DNA 1: GCCAAACTAGGTCACAGAGTTCAAAGTCCGTGCGTAGCGATTGACAGCGTAGAATGAAGG
DNA 2: CCTTCATTCTACGCTGTCAATCGCTACGCACGGACTTTGAACTCTGTGACCTAGTTTGGC
On to B5, for which the binding signal with VDR:RXRa is 8.45 PBM z-score against 500 random probes.

B6: NRC3_random_hg19_443_o1 (dsDNA)
DNA 1: GCTAGTACTTGGTCCATAGCACTACTACTCACTTTGGCGATTGACAGCGTAGAATGAAGG
DNA 2: CCTTCATTCTACGCTGTCAATCGCCAAAGTGAGTAGTAGTGCTATGGACCAAGTACTAGC
Turning to B6, the binding signal is 0.04 PBM z-score against 500 random probes with RXRa, -0.32 PBM z-score against 500 random probes in the data set with PPARa:RXRa and -0.05 PBM z-score against 500 random probes with RARb:RXRa.

B7: NRC3_random_hg19_114_o1 (dsDNA)
DNA 1: GCCAAGGCAGCCAGAACTGATGATTGCACTGTGTGGGCGATTGACAGCGTAGAATGAAGG
DNA 2: CCTTCATTCTACGCTGTCAATCGCCCACACAGTGCAATCATCAGTTCTGGCTGCCTTGGC
Take B7: the binding signal with RXRa was -0.24 PBM z-score against 500 random probes; with RARb:RXRa, -1.11 PBM z-score against 500 random probes.

B8: NRC3_random_hg19_63_o1 (dsDNA)
DNA 1: GCTTTCAAGGCAGTAAGAGTTTGCTGTGCATCAGCTGCGATTGACAGCGTAGAATGAAGG
DNA 2: CCTTCATTCTACGCTGTCAATCGCAGCTGATGCACAGCAAACTCTTACTGCCTTGAAAGC
In the case of B8, the binding signal with RXRa was -1.05 PBM z-score against 500 random probes; with RARb:RXRa, -0.61 PBM z-score against 500 random probes.

B9: NRC3_wobSeed109_DR4_T15C_o1 (dsDNA)
DNA 1: GCCGTCCAAGGTCACAGGAGGTCAGTGAAGACAGATGCGATTGACAGCGTAGAATGAAGG
DNA 2: CCTTCATTCTACGCTGTCAATCGCATCTGTCTTCACTGACCTCCTGTGACCTTGGACGGC
Take B9: the binding signal with RXRa was 7.9 PBM z-score against 500 random probes; with RARg:RXRa, 7.39 PBM z-score against 500 random probes; with RARb:RXRa, 5.7 PBM z-score against 500 random probes.

B10: NRC3_wobSeed13_DR0_A8G_o1 (dsDNA)
DNA 1: GCCGTCCGAGGTCAAGGTCAGTGAAAGAGACTCGAAGCGATTGACAGCGTAGAATGAAGG
DNA 2: CCTTCATTCTACGCTGTCAATCGCTTCGAGTCTCTTTCACTGACCTTGACCTCGGACGGC
For B10, the binding signal in the data set with RXRa is 8 PBM z-score against 500 random probes; with PPARa:RXRa, 6.49 PBM z-score against 500 random probes; in the data set with RARg:RXRa, 7.45 PBM z-score against 500 random probes; with FXR:RXRa it was 8.4 PBM z-score against 500 random probes.
